Data on six compounds can be found in patent US10421785B2, “Delta receptor agonist peptides and use thereof” (BAR-ILAN UNIVERSITY, priority 2016, dated 2019).

The target of one assay is T1, C6 cells membrane (DOR) (Rattus norvegicus, UniProt P33533).
T1 construct: delta opioid receptor expressed by the C6 cells; endogenous in cells; host or cells: C6 glioma cells
Put plainly: Microscope validation of GNP-peptide binding to C6 cells. The class given is cell-based. As for the experimental part:
(§1) C6 cells (1×10^6) were cultured in 5 ml glucose-free DMEM medium containing 5% FCS, 0.5% Penicillin and 0.5% Glutamine. Then, excess amounts of GNPs were added and incubated with cells for 30 minutes at 37° C.
Fluorescent coated (Rhodamine B, Sigma, Israel) GNP-peptidl were incubated with C6 cells for 30 min at 37° C. The cells were subsequently washed three times in PBS prior to confocal imaging using Leica TCS SP5 with Acousto-Optical Beam Splitter microscope to acquire fluorescent and bright field images.
A Nikon i50 microscope (Tokyo, Japan) equipped with a hyperspectral imaging system (CRI, USA) was used to obtain dark-field images (20× magnification) in order to assess nanoparticle uptake.

The test system of another assay is Sprague-Dawley rats. Put plainly: Cue-induced cocaine-seeking behavioral test after forced abstinence.
The next assay addresses T2, δ-opioid receptor (Rattus norvegicus, UniProt P33533).
T2 construct: delta opioid receptor expressed by the C6 cells; endogenous in cells; host or cells: C6 glioma cells
Put plainly: Competitive flow cytometry assay of free peptides against DSLET-FITC on C6 cells. The settings on record: 100 nM peptide, 3.5 nM DSLET-FITC. The class given is binding. As for the experimental part:
(§2) The derived peptides were synthesized (Pepmic, Suzhou, China). The binding specificity of the peptides was tested in a competitive assay. C6 cells were grown to 70-80% confluence and removed from the culture, centrifuged and re-suspended to 2×10^6/ml in PBS/0.05% FBS.DSLET-FITC (3.5 nM) was mixture with 0, 3.5, 10, 50 or 100 nM of peptide. In parallel, 2 nM DAMGO-FITC was mixture with 0, 2, 10, 50 or 100 nM of peptide. These mixtures (500 μl) were added to the cells for 5 min at 37° C. Then 500 μl PBS was added and the tubes centrifuge for 5 min at 4250 rpm. The cell pellet was re-suspended in PBS and analyzed by flow cytometry.

The target of a further assay is T3, μ-opioid receptor (Rattus norvegicus, UniProt P33535).
T3 construct: 50% expressed the μ-opioid receptor; endogenous in cells; host or cells: C6 glioma cells
T3 sequence (P33535 whole entry): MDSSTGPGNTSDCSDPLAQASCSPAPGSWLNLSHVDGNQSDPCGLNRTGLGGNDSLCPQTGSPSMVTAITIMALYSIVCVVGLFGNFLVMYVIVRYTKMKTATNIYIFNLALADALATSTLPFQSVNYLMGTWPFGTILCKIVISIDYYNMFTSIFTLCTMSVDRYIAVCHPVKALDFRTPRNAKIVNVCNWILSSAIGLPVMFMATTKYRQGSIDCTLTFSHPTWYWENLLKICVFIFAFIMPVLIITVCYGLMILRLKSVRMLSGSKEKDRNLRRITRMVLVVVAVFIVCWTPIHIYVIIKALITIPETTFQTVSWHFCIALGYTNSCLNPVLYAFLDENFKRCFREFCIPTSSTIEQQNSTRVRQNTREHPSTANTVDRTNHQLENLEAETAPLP
The experiment in a line: Competitive flow cytometry assay of free peptides against DAMGO-FITC on C6 cells. The class given is binding. The note with it: 2 nM DAMGO-FITC. As for the experimental part: as §2

Assay [1] addresses T4, δ-opioid receptor (DOR) expressed on C6 cells (Rattus norvegicus, UniProt P33533).
T4 construct: delta opioid receptor expressed by the C6 cells; endogenous in cells; host or cells: C6 glioma cells
Put plainly: Intracellular cyclic AMP in C6 cells (Direct cAMP kit / cAMP ELISA). In kind it is cell-based. The note with it: for reduction of cAMP levels: 100 nM, C6 cells. How it is done: To test the pharmacological function of the peptides showing positive competitive binding versus the DSLET analogue and negative competition versus the DMGO analogue were tested for agonistic activity using the Direct cAMP kit (Enzo). The analogue DSLET was used as a positive control.

The target in assay [2] is T5, delta opioid receptor expressed by the C6 cells (Rattus norvegicus, UniProt P33533).
T5 construct: delta opioid receptor expressed by the C6 cells; endogenous in cells; host or cells: C6 glioma cells
T5 sequence (P33533 whole entry): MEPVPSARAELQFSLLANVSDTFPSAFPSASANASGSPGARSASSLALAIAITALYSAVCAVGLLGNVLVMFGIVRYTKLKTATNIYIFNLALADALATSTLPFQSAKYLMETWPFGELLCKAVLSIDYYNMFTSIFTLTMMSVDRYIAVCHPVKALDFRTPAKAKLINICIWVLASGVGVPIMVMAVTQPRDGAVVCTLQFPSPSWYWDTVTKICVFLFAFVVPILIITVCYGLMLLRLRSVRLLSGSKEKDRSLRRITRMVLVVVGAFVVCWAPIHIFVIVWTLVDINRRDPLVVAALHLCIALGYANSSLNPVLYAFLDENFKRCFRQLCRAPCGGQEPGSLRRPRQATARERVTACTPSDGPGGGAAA
Put plainly: FACS analysis of GNP-peptide binding to C6 cells. As for the experimental part:
as §1
Cells were incubated with GNP-peptide for 15 min at 37° C. and then washed with PBS, followed by trypsin treatment. Then, cells were centrifuged twice (5 min in 1000 rpm) to wash out unbound nanoparticles. Cells were analyzed for cell-associated NPs by Flow Cytometry (FACS; Cellquest software; Becton-Dickinson & Co., Franklin Lakes, N.J.).

Entries after “also recorded” stand apart in the source; their conditions may differ. Where no end group is shown, it is not given here.

T1 sequence (P33533 whole entry): as above
T4 sequence (P33533 whole entry): as above
T2 sequence (P33533 whole entry): as above

In the case of `Oc1ccc2c3c1O[C@H]1c4[nH]c5ccccc5c4C[C@@]4(O)[C@@H](C2)N(CC2CC2)CC[C@]314` [naltrindole, reference compound], the “binding of GNP conjugated peptide 1 to the cells membrane after blocking the DOR” value on C6 cells membrane (DOR) was “significant decrease in the binding; also recorded: prevented the binding of the peptide to the cells membrane”. Further, in the assay with Sprague-Dawley rats (intra-NAc infusion, 1 μg, day 1 of forced abstinence), the cue-induced cocaine-seeking behavior result was “increased cue-induced cocaine-seeking behavior”.
Consider CTAP [reference compound], for which the cue-induced cocaine-seeking behavior result in the assay with Sprague-Dawley rats (intra-NAc injection, 3 μg and 30 ng, 1 day or 30 days of forced abstinence) is “no behavioral effect”.
In the case of DPDPE [reference compound], in the assay with Sprague-Dawley rats (injected into the NAc once after 30 days of abstinence, observed at days 30 and 60), the “active lever presses (seeking behavior) vs CSF group” value is “reduced seeking behavior”.
Take IIAGEYKQMLTL [Peptide 2]: in the assay with δ-opioid receptor, the “maximum inhibition of DSLET-FITC binding” value is 45%. For the same compound, the “inhibition of DAMGO-FITC binding to the μ-opioid receptor” value in the assay with μ-opioid receptor was “neither Peptide 1 or 2 inhibited binding”. Besides, the “reduction of cAMP levels” value in assay [1] is listed as around 80%.
Turning to NGNDRTDQMPLP [Peptide 1], in the assay with δ-opioid receptor, the “maximum inhibition of DSLET-FITC binding” value came to 48%. The “inhibition of DAMGO-FITC binding to the μ-opioid receptor” value with μ-opioid receptor is “neither Peptide 1 or 2 inhibited binding”. Further, the “reduction of cAMP levels” value in assay [1] was around 80%. For the same compound, the “active lever presses vs CSF group” value with Sprague-Dawley rats (injection into the NAc, two doses) is reported as “decreased active lever presses”.
In the case of “peptide 1 conjugated to gold nanoparticles: 20 nm PEG-coated gold nanoparticles with the peptide covalently conjugated to the carboxylic group of SH-PEG-COOH (NGNDRTDQMPLP; also: covalently conjugated to carboxyl of SH-PEG-COOH on 20 nm PEG-coated gold nanoparticles, site not given here)”, in assay [1] (GNP conjugated to peptide 1, C6 cells), the “cAMP decreased to % from the initiation state” value was found to be 80.70%. Besides, the “binding to the delta opioid receptor on C6 cells by FACS relative to vehicle” value in assay [2] is “higher affinity and exhibited better binding to the cells relative to vehicle”. Besides, the “binding to the C6 cells membrane (microscope)” value is on record as “bind mainly the C6 cells membrane” in the assay with C6 cells membrane (DOR) (listed as Gold nanoparticle (GNP) conjugated peptide 1) and “increased binding to the C6 cells membrane” with C6 cells membrane (DOR) (listed as Peptide 1 conjugated to GNP). The “active lever presses vs CSF group” value in the assay with Sprague-Dawley rats (GNP conjugate, injection into the NAc) is reported as “decreased active lever presses”; in the assay with Sprague-Dawley rats (GNP conjugate, intra-nasal, tested two hours later), “Significantly less active lever presses”.
